The subject of data set [1] is fluorescent ssRNA reporter. It is filed as biochemical.
For data set [2], the system named is 2 Kb DNA reporter labelled biotin and digoxigenin. It is filed as biochemical.
Data set [3] relates to plasmid DNA.
Data set [4] deals with plasmid DNA. It is filed as biochemical.
The subject of data set [5] is ssDNA. It is filed as biochemical. Conditions: for ssDNA cleavage activity: 425 nM ssDNA, 200 nM nuclease, cyclic oligoadenylates.
Data set [6] relates to ssRNA. It is filed as biochemical. The settings on record: 425 nM ssRNA, 200 nM nuclease, cyclic oligoadenylates.
Data set [7] has as its system SARS-CoV-2 RNA. It is filed as biochemical.
Data set [8] concerns cA3 and cA4. It is filed as biochemical.
Data set [9] has as its system library of 46 synthetic RNAs. It is filed as biochemical.
Data set [10] has as its system SARS-CoV-2 N gene RNA. It is filed as biochemical. Conditions: IVT SARS-CoV-2 N gene fragment spiked in total RNA of negative swab, no RNA capture.
Data set [11] has as its system fluorescent dsDNA reporter. It is filed as biochemical.

Some results are limits rather than exact numbers.

B1: TtCan1: Can1 from Thermus thermophilus, NCBI WP_011229147.1, SEQ ID NO. 61 (protein, listed as Thermus thermophilus)
chain: MQAPVYLCLLGNDPAPAYLGLKVVEREAGRVAKAVFYSFPAWNEEYGKKRQAFFRLLSEKGVLYEERPLEKGLEEAEAREVWVNLTGGAKYWAVRFLGHWRRPGARVFLVEGHRALEAPRALFLWPREEERSLEAEALTLEEYARLYLEPLGEAWERVSPPGAFPPGAQAARLPGREGGVFVVHRGLPYWYWVRPHLGGEAKDMSRKALSAFSGEAKRLGGQLCLPVVPYHKAHLRSRHPKERENVFARWRAWAREYGVFLVDPGRPLEEEVASLIKGKASKKALPLPQEGPLLLALVSEQAVPLYAAYLHAGPREVYLLTTPEMESRLRWAEAFFRGKGVRVHRSFLSGPWALREVRDLLAPVVEEALRRGHPVHANLNSGTTAMALGLYLALRDGARAHYLDGDRLLLLDGGEAEVPWEEGRPEDLLALRGYRFEEEYPDARPDPGLLALAEEILRRWDEVQTSWEASPLVRRFLKFWKKRFGQAFPPKRLSRLKGLPLEYAVYSHLNAHLAPKGGQARMGGHLVPLGGNEALAPQSTEVDGVFFHRGALWFVECKPTDEGLRERAPIMAELVRSVGGVEARGLMVARRWRGAPPPASPNLVYMALEGGEGVGVYRFPEELEKALSRNPAPRRG
As for B1, the “RNA reporter cleavage compared with AaCan2” value in data set [1] is “requires higher concentrations of cA4 and produces less fluorescent signal”. For the same molecule, in data set [2], the “lateral flow result with cA3” value is given as “positive result” and the “lateral flow result with cA4” value is reported as “negative result”. Moreover, in data set [3], the “DNA sequence cleavage preference” value was “non-sequence specific”. Besides, in [4], the “plasmid DNA cleavage with cA4” value was “comparable to the background activity” and the “size of plasmid DNA degradation fragments” value is given as roughly 100 bp. Besides, the ssDNA cleavage activity result in data set [5] is “does not cleave ssDNA”. For the same molecule, the ssRNA cleavage activity entry in [6] was “cA4-dependent single-stranded RNase”.

B2: AaCan2: Can2 from Archaeoglobi archaeon JdFR-42, JGI 2730024700, SEQ ID NO. 59 (protein)
chain: MSHIHVCLVSDQAIPNLTTALQFNPDTTVLLSTNEMKDKAKRLETVLKNKGLKVKTLKISAYDINDVITVSESLLNDCKGCKVSLNITGGTKIGTLGTFQVFYTASKPIFYVNTKDNEIIKLYPEKEQQKYPIEISISIKDYLAVYGFNVKSYVKDDSYIYKRKKVTDYLANLVIHRPNIIGEINYKLQNFEEKSYPLKINITKNKQVIKLYDILKDSGLVKIRNKSTIEIPDVETAKYLNGIWFEEYVYMMAKSLGADEVKLNVKGVWDTVGKHPPTNEFDILISKGNRLFYISCKTANPDRKIDDTDETIGKEYLYELDSISDSALGLFGKRMLASARAIKNDYVRKRAEILKIDIADGQNIATLKGKLQQWLSK
modifications: Archaeoglobi archaeon
As for B2, in data set [7] (RNA capture with AaCan2 readout, no RNA extraction or pre-amplification), the “SARS-CoV-2 RNA concentration detected directly in swabs” value is given as 5×10^4 copies/μL. The “Ct of unprocessed swab samples detected” value in [7] (no RNA purification, lysis buffer 0.05% Triton X-100 and 1 mM EGTA, AaCan2 readout) is listed as greater than 21.2. In data set [7] (unprocessed swab vs purified RNA), the “loss of sensitivity compared to detection using purified RNA” value is roughly 5 fold. Further, in [1], the “cA4 concentration giving a similar fluorescent signal” value is listed as 0.5 nM, the “cA4 range in which rate of fluorescent signal is proportional to activator” value fell in the range of 1 to 10 nM and the “fold less cA4 needed than TtCsm6 for similar fluorescent signal” value is 20 fold. Further, the “ring-nuclease activity on cyclic nucleotide activator” value in data set [8] is “binds and preserves the cyclic nucleotide”. Further, in [4], the “dsDNase activity, activator and metal dependence” value was “Mn^2+- and cA3-dependent dsDNase”. For the same molecule, the “ssRNA sequence cleavage preference” value in data set [9] was “ACGACG”. Moreover, the ssDNA cleavage activity entry in [5] is “Reproducible cleavage of ssDNA is also detectable”. Further, in data set [5] (Mn^2+-specific), the “cA4 concentration required for robust ssDNA cleavage” value is 45 nM. The “target RNA concentration detected by TtCsm assay coupled with the nuclease” value in data set [10] is listed as 10^5 copies/μL. Moreover, in data set [6], the ssRNA cleavage activity entry is “ssRNase when activated with cA4”.

B3: CtNucC: NucC from Clostridium tepidum, NCBI WP_195923598.1, SEQ ID NO. 55 (protein, listed as Clostridium tepidum)
chain: MGQIDIKSLFYSLQTQMCAKLSTNRQHIQHPGIKGDSSELNWIEWLKTYLPKRYSVDKAFIIDCDGNMSDQIDVVIYDQQYSPFVFNQDNAYYIPAESVYAIFEVKQEINKENIIYAGDKTKSVRSLKRTSTAIPHAGGYYAPKPHNKILSGILTLSSVWNPPLGKSFEEAIYSLEDESKLDIGCILAEGSFLADYKNDVLMKSTEEESLIFFFLKLLIELQSLGTTPAIDINCYGRALDSI
For B3, in [11], the “cA3 sensitivity relative to AaCan2” value was 100 fold, the “cA3 sensitivity relative to TtCan1” value is 10 fold and the “lowest concentration of cA3 detected” value worked out at 0.5 nM. Also, in data set [4], the “dsDNase activity among three thermophilic NucC orthologs” value was “highest dsDNase activity” and the “size of plasmid DNA digestion fragments” value is given as 300-400 bp. Further, the “target RNA concentration detected by TtCsm assay coupled with the nuclease” value in data set [10] is recorded as 10^7 copies/μL.
